Reference: the supplement of paper PMC11875167

Assay: observed amide hydrogen exchange rate constant kobs (stretched exponential fit, FD-normalized) (s^-1); higher = faster H/D exchange (less protection)
Settings: pH 3 (pH read); temperature: 20 °C; D2O: 88%
Summary of the method: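 Exchange was started by placing Jurkat tryptic peptides in 88% D2O at pHread 3 and 20 °C, and was stopped with 0.23% formic acid at 13 times from 18 to 93,600 s. HDExaminer processed MS1 uptake from a Q-Exactive HF with no back-exchange correction, normalizing it to full-deuteration controls prepared for 24 h at 37 °C. The fit used a stretched single exponential with β = 0.8. The observed exchange rate constant kobs is defined as the rate from this fit.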

Compared with FSELTAEK, FSGWYDADLSPAGHEEAK is higher in “observed amide hydrogen exchange rate constant kobs” value: 0.00148 for the first, 0.00239 for the second.

Compared with FSHEEIAMATVTALRR, FTQAGSEVSALLGR is higher in “observed amide hydrogen exchange rate constant kobs” value: 0.000978 for the first, 0.00109 for the second.

Going from FVADGIFK to FVSISDLLVPK, the “observed amide hydrogen exchange rate constant kobs” value falls from 0.00103 to 0.000665.

First: FYEAFSK
Second: GADFLVTEVENGGSLGSK
The “observed amide hydrogen exchange rate constant kobs” value of the first is lower: 0.00122 for the first, 0.00147 for the second.

First: GAEAANVTGPGGVPVQGSK
Second: GALQNIIPASTGAAK
The “observed amide hydrogen exchange rate constant kobs” value of the first is higher: 0.00103 for the first, 0.000988 for the second.

Compared with GAVDGGLSIPHSTK, GCITIIGGGDTATCCAK is lower in “observed amide hydrogen exchange rate constant kobs” value: 0.00225 for the first, 0.00119 for the second.

First: GDEEGVPAVVIDMSGLR
Second: GDEELDSLIK
The “observed amide hydrogen exchange rate constant kobs” value of the first is higher: 0.00109 for the first, 0.000999 for the second.

First: GDGPVQGIINFEQK
Second: GEATVSFDDPPSAK
The “observed amide hydrogen exchange rate constant kobs” value of the first is lower: 0.000693 for the first, 0.00157 for the second.

Compared with GEENLMDAQVK, GEGQLGPAER is higher in “observed amide hydrogen exchange rate constant kobs” value: 0.00185 for the first, 0.0023 for the second.

First: GEMMDLQHGSLFLR
Second: GFGFILFK
The “observed amide hydrogen exchange rate constant kobs” value of the first is higher: 0.00161 for the first, 0.000667 for the second.

First: GFGFVDFNSEEDAK
Second: GFGFVLFK
The “observed amide hydrogen exchange rate constant kobs” value of the first is higher: 0.00238 for the first, 0.000656 for the second.

Compared with GFGFVTYATVEEVDAAMNARPHK, GFSTWLK is lower in “observed amide hydrogen exchange rate constant kobs” value: 0.00098 for the first, 0.000875 for the second.

Compared with GGGQIIPTAR, GGSDGYGSGR is higher in “observed amide hydrogen exchange rate constant kobs” value: 0.000898 for the first, 0.00404 for the second.

First: GHYTEGAELVDSVLDVVRK
Second: GIAYIEFK
The “observed amide hydrogen exchange rate constant kobs” value of the first is higher: 0.00131 for the first, 0.00091 for the second.

Compared with GIGYLK, GILAADESTGSIAK is higher in “observed amide hydrogen exchange rate constant kobs” value: 0.00124 for the first, 0.00166 for the second.

First: GIVDQSQQAYQEAFEISK
Second: GLAPDLPEDLYHLIK
The “observed amide hydrogen exchange rate constant kobs” value of the first is lower: 0.000918 for the first, 0.00112 for the second.

Compared with GLFIIDDK, GLSEDTTEETLK is higher in “observed amide hydrogen exchange rate constant kobs” value: 0.00107 for the first, 0.003 for the second.

Compared with GLTPSQIGVILR, GLTSVINQK is higher in “observed amide hydrogen exchange rate constant kobs” value: 0.00062 for the first, 0.000815 for the second.

Compared with GLVGEIIK, GNFGGSFAGSFGGAGGHAPGVAR is higher in “observed amide hydrogen exchange rate constant kobs” value: 0.000569 for the first, 0.00196 for the second.

First: GNPTVEVDLFTSK
Second: GNSIIMLEALERV
The “observed amide hydrogen exchange rate constant kobs” value of the first is lower: 0.000833 for the first, 0.00109 for the second.

Compared with GPDGLTAFEATDNQAIK, GPSSVEDIK is higher in “observed amide hydrogen exchange rate constant kobs” value: 0.00114 for the first, 0.00156 for the second.

Going from GRGARGGKAEDK to GSYGDLGGPIITTQVTIPK, the “observed amide hydrogen exchange rate constant kobs” value falls from 0.00275 to 0.000771.

Compared with GTGIVSAPVPK, GTLDPVEK is higher in “observed amide hydrogen exchange rate constant kobs” value: 0.00104 for the first, 0.00116 for the second.

Going from GVNLPGAAVDLPAVSEK to GVVDSEDLPLNISR, the “observed amide hydrogen exchange rate constant kobs” value rises from 0.0011 to 0.0013.

Going from GVVPLAGTNGETTTQGLDGLSER to GYDVIAQAQSGTGK, the “observed amide hydrogen exchange rate constant kobs” value falls from 0.00156 to 0.00126.

First: GYFEYIEENK
Second: GYISPYFINTSK
The “observed amide hydrogen exchange rate constant kobs” value of the first is higher: 0.00229 for the first, 0.000598 for the second.

Going from GYSFTTTAER to HALIIYDDLSK, the “observed amide hydrogen exchange rate constant kobs” value falls from 0.00184 to 0.00058.

First: HAVSEGTK
Second: HEHQVMLMR
The “observed amide hydrogen exchange rate constant kobs” value of the first is higher: 0.00263 for the first, 0.00145 for the second.

Compared with HELLQPFNVLYEK, HFVALSTNTTK is higher in “observed amide hydrogen exchange rate constant kobs” value: 0.00104 for the first, 0.00117 for the second.

Compared with HIADLAGNSEVILPVPAFNVINGGSHAGNK, HIYYITGETK is lower in “observed amide hydrogen exchange rate constant kobs” value: 0.00138 for the first, 0.00121 for the second.

Compared with HLEINPDHPIVETLR, HLEINPDHSIIETLR is higher in “observed amide hydrogen exchange rate constant kobs” value: 0.00133 for the first, 0.00155 for the second.

Compared with HLQLAIRNDEELNK, HQEGEIFDTEK is higher in “observed amide hydrogen exchange rate constant kobs” value: 0.00184 for the first, 0.0025 for the second.

Compared with HQGVMVGMGQK, HQPTAIIAK is lower in “observed amide hydrogen exchange rate constant kobs” value: 0.00127 for the first, 0.00045 for the second.

Compared with HSQFIGYPITLYLEK, HWPFMVVNDAGRPK is higher in “observed amide hydrogen exchange rate constant kobs” value: 0.000606 for the first, 0.00131 for the second.

Compared with HYGGLTGLNK, IACLDFSLQK is lower in “observed amide hydrogen exchange rate constant kobs” value: 0.00221 for the first, 0.000643 for the second.

First: IAIYELLFK
Second: IDEPLEGSEDR
The “observed amide hydrogen exchange rate constant kobs” value of the first is lower: 0.000527 for the first, 0.00298 for the second.

Compared with IDFYFDENPYFENK, IDNSQVESGSLEDDWDFLPPKK is lower in “observed amide hydrogen exchange rate constant kobs” value: 0.00186 for the first, 0.00156 for the second.

Compared with IDTIEIITDR, IEDGNNFGVAVQEK is higher in “observed amide hydrogen exchange rate constant kobs” value: 0.000965 for the first, 0.00127 for the second.

Going from IEDLSQQAQLAAAEK to IEDVTPIPSDSTR, the “observed amide hydrogen exchange rate constant kobs” value rises from 0.0009 to 0.00154.

First: IEEELGSK
Second: IETIEVMEDR
The “observed amide hydrogen exchange rate constant kobs” value of the first is higher: 0.00244 for the first, 0.00148 for the second.

Compared with IEVIEIMTDR, IFGGLDMLAEK is higher in “observed amide hydrogen exchange rate constant kobs” value: 0.00104 for the first, 0.00145 for the second.

First: IFGVTTLDIVR
Second: IFVGGLNPEATEEK
The “observed amide hydrogen exchange rate constant kobs” value of the first is lower: 0.000765 for the first, 0.00108 for the second.

Going from IGAEVYHNLK to IGEHTPSALAIMENANVLAR, the “observed amide hydrogen exchange rate constant kobs” value falls from 0.0019 to 0.000813.

First: IGFPWSEIR
Second: IGLFGGAGVGK
The “observed amide hydrogen exchange rate constant kobs” value of the first is higher: 0.000936 for the first, 0.000762 for the second.

First: IGPLGLSPK
Second: IHFPLATYAPVISAEK
The “observed amide hydrogen exchange rate constant kobs” value of the first is higher: 0.000838 for the first, 0.000691 for the second.

Compared with IHPVSTMVK, IIAPPERK is higher in “observed amide hydrogen exchange rate constant kobs” value: 0.000804 for the first, 0.00142 for the second.

Compared with IIDVVYNASNNELVR, IILDLISESPIK is lower in “observed amide hydrogen exchange rate constant kobs” value: 0.00138 for the first, 0.000711 for the second.

Compared with IINEPTAAAIAYGLDK, IISSIEQK is higher in “observed amide hydrogen exchange rate constant kobs” value: 0.000776 for the first, 0.00126 for the second.

Compared with IITLTGPTNAIFK, IIWQFIK is lower in “observed amide hydrogen exchange rate constant kobs” value: 0.000716 for the first, 0.000404 for the second.

First: IKGEHPGLSIGDVAK
Second: ILATPPQEDAPSVDIANIR
The “observed amide hydrogen exchange rate constant kobs” value of the first is higher: 0.00174 for the first, 0.00103 for the second.

Going from ILDSVGIEADDDRLNK to ILEFFGLK, the “observed amide hydrogen exchange rate constant kobs” value falls from 0.0024 to 0.00112.

Compared with ILGLLDAYLK, ILQDGGLQVVEK is higher in “observed amide hydrogen exchange rate constant kobs” value: 0.00089 for the first, 0.000978 for the second.

Going from ILTFDQLALDSPK to IMATPEQVGK, the “observed amide hydrogen exchange rate constant kobs” value rises from 0.000724 to 0.000917.

Going from IMNTFSVVPSPK to INISEGNCPER, the “observed amide hydrogen exchange rate constant kobs” value rises from 0.000631 to 0.000833.

Going from IQLINNMLDK to IREEYPDR, the “observed amide hydrogen exchange rate constant kobs” value rises from 0.00081 to 0.00399.

Going from IRYESLTDPSK to ISVVSTK, the “observed amide hydrogen exchange rate constant kobs” value falls from 0.00212 to 0.000812.

Compared with ISVYYNEATGGK, ITLPVDFVTADKFDENAK is lower in “observed amide hydrogen exchange rate constant kobs” value: 0.00138 for the first, 0.0013 for the second.

Going from IVEMSTSK to IWDLEGK, the “observed amide hydrogen exchange rate constant kobs” value falls from 0.00206 to 0.00103.

Going from IWHHTFYNELR to IYVDDGLISLQVK, the “observed amide hydrogen exchange rate constant kobs” value falls from 0.00224 to 0.000841.

Going from IYVGNLPPDIR to IYVLLR, the “observed amide hydrogen exchange rate constant kobs” value falls from 0.00116 to 0.000454.

First: KLEAAEER
Second: KSDVEAIFSK
The “observed amide hydrogen exchange rate constant kobs” value of the first is higher: 0.00257 for the first, 0.000898 for the second.

First: LAAIAESGVER
Second: LAHEVGWK
The “observed amide hydrogen exchange rate constant kobs” value of the first is lower: 0.000919 for the first, 0.00169 for the second.

Going from LAMQEFMILPVGAANFR to LAPITSDPTEATAVGAVEASFK, the “observed amide hydrogen exchange rate constant kobs” value rises from 0.000775 to 0.000899.

Going from LAVNMVPFPR to LAYINPDLALEEK, the “observed amide hydrogen exchange rate constant kobs” value rises from 0.000639 to 0.00137.

First: LDGLVETPTGYIESLPR
Second: LDIDSPPITAR
The “observed amide hydrogen exchange rate constant kobs” value of the first is lower: 0.000897 for the first, 0.00107 for the second.

First: LDNLVAILDINR
Second: LEEDINSSMTNSTAASRPPVTLR
The “observed amide hydrogen exchange rate constant kobs” value of the first is lower: 0.00063 for the first, 0.00139 for the second.

Compared with LEEDISSSMTNSTAASRPPVTLR, LFFLQVK is lower in “observed amide hydrogen exchange rate constant kobs” value: 0.00131 for the first, 0.00042 for the second.

Going from LFIGGLNTETNEK to LFIGGLSFETTDDSLREHFEK, the “observed amide hydrogen exchange rate constant kobs” value rises from 0.00144 to 0.00239.

Going from LFQECCPHSTDR to LFVGGLK, the “observed amide hydrogen exchange rate constant kobs” value falls from 0.00299 to 0.000811.

Compared with LGDVYVNDAFGTAHR, LGEMWNNTAADDKQPYEK is lower in “observed amide hydrogen exchange rate constant kobs” value: 0.00197 for the first, 0.00171 for the second.

Compared with LGEWVGLCK, LGFAGLVQEISFGTTK is higher in “observed amide hydrogen exchange rate constant kobs” value: 0.000773 for the first, 0.001 for the second.

Compared with LGGSAVISLEGKPL, LGGSLADSYLDEGFLLDK is higher in “observed amide hydrogen exchange rate constant kobs” value: 0.000716 for the first, 0.00175 for the second.

Going from LGIHEDSTNR to LHFFMPGFAPLTSR, the “observed amide hydrogen exchange rate constant kobs” value falls from 0.00441 to 0.00112.

Going from LIAPVAEEEATVPNNK to LIDDMVAQVLK, the “observed amide hydrogen exchange rate constant kobs” value falls from 0.00102 to 0.000612.

First: LIINSLYK
Second: LILPHVDIQLK
The “observed amide hydrogen exchange rate constant kobs” value of the first is lower: 0.00064 for the first, 0.000852 for the second.

Going from LISWYDNEFGYSNR to LLDVVHPAAK, the “observed amide hydrogen exchange rate constant kobs” value falls from 0.00164 to 0.00126.

Going from LLEPVLLLGK to LLEVEHPAAK, the “observed amide hydrogen exchange rate constant kobs” value rises from 0.000574 to 0.00188.

First: LLGELLQDNAK
Second: LLIHQSLAGGIIGVK
The “observed amide hydrogen exchange rate constant kobs” value of the first is lower: 0.000855 for the first, 0.000892 for the second.

With LLLPGELAK the “observed amide hydrogen exchange rate constant kobs” value was 0.000859.
